* marks the point of attachment. CONH‑phenylbutyl = C-terminal alpha-ketoamide warhead with phenylbutyl on the amide nitrogen, O=C(NCCCCc1ccccc1)*; B(OH)2 = C-terminal boronate warhead, OB(O)*
T1: E. coli GlpG consisting of residues 87-276 (ΔN-GlpG) (E. coli, UniProt P09391 87-276)
T1 sequence (looked up): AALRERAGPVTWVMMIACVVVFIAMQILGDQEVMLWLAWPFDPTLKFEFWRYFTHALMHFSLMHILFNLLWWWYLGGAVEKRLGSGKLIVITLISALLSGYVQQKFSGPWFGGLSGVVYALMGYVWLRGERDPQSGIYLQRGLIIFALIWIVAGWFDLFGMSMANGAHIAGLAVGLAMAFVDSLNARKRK


Key:
[1] = biological target: T1, E. coli GlpG consisting of residues …; assay: crystal structure
[2] = biological target: P. falciparum rhomboid protease PfROM4 (HA-tagged) (P. falciparum); assay: cell-based or functional assay

| Binder | binding result [1] | EC50 of inhibition of EBA175 cleavage by PfROM4 in HEK293T cells [2] [nM] |
| --- | --- | --- |
| Ac-RVWHA-{CONH‑phenylbutyl} [rhomboid-inhibiting ketoamide (RiKa), Ac-RVWHA-CONH-phenylbutyl] | binds | 55 |
| Ac-KRFRSMQYSA-{B(OH)2} (SMILES CSCC[C@H](NC(=O)[C@H](CO)NC(=O)[C@H](CCCNC(=N)N)NC(=O)[C@H](Cc1ccccc1)NC(=O)[C@H](CCCNC(=N)N)NC(=O)[C@H](CCCCN)NC(C)=O)C(=O)N[C@@H](CCC(N)=O)C(=O)N[C@@H](Cc1ccc(O)cc1)C(=O)N[C@@H](CO)C(=O)N[C@@H](C)C(=O)B(O)O) [rhomboid-inhibiting boronate (RiBn), Ac-KRFRSMQYSA-B(OH)2] | binds | – |

From article PMC7680425 (Cell chemical biology, 2020)
